Results from the supplement of paper PMC12636428.

What follows are sequences tested on Saccharomyces cerevisiae (assay: transcriptional activation domain activity (GFP:mCherry ratio, weighted mean of sorted bins, harmonized to initial dataset scale) (arbitrary fluorescence ratio units); higher = stronger transcriptional activation). Conditions: beta-estradiol 1 µM; induction time 4 h.
Method in brief: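 Barcoded protein tiles fused to an estradiol-inducible synthetic transcription factor were integrated at the yeast URA3 locus, in diploids carrying a GFP reporter. Cultures were diluted 1:5 into SC with 1 uM beta-estradiol, held 4 hours at 30 °C, sorted into 8 bins by GFP:mCherry ratio, and barcodes sequenced. Tiles under 50 reads were discarded. Activation activity is the read-weighted mean of bin median fluorescence, averaged across barcodes, then linearly mapped onto the initial dataset scale.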
For “WWGDTYFLFFPCLMYKFHVGFCLYMKWEMLYLLLFGRACDVFIMIGVVAVHVL”, the “transcriptional activation domain activity” value was 62400.
“VIITLICRYEMHSTRLRLRGMSILSFLVNYTGRSMCNIKTTGFLDMIFALRQV” was tested, and the “transcriptional activation domain activity” value was 47100.
For “LWHLVYEPILKGIHEHLLLLDEIIEIFGPDVEKELFRRVYYYLSLLCMHSGTH”, the “transcriptional activation domain activity” value was 24600.
For “MQWAGLMFFRCSICLLAFSVILMFGLVWYFFALCVVNRLSTICFVFWMLLSFL”, the “transcriptional activation domain activity” value was 42700.
In the case of “SGNTGENEEDIAFASGLNGGTFDSMLEALPDDLYFTDFVSPFTAAATTSVTTK”, the “transcriptional activation domain activity” value is reported as 85100.
In the case of “GRPPRSSNESPEAKPAKRARKKAPTEEPEAEVLEDVKPKRGRARVAKKTTADV”, the “transcriptional activation domain activity” value is reported as 22400.
For “ITQMQQTDFYHVDQDDYVHSFVIHNSRLMWNVAIRAIVMRFIELQSQASLLQY”, the “transcriptional activation domain activity” value was 51800.
With “TYPVSMPFDGTLNLDLDMCFLDVTNTDINFSDIFDPNFQFGSYGFPLSLDYDI” the “transcriptional activation domain activity” value was 139000.
For “LVVKVLNNTAFSPFFTFFIPVLYWSQNQSWSAPTVFWSTAWFLLVCIFSLLKL”, the “transcriptional activation domain activity” value was 20900.
With “DDKPAEKKEAAAAPKKEEAKKEEAKPAEKKEEPKKEAATAVPKATEKKPATAA” the “transcriptional activation domain activity” value was 25900.
In the case of “SSEESSSEDDDGDVKMADAKPAANGIYIYLSSINRLINPLQFQVSVKPTRMSL”, the “transcriptional activation domain activity” value is reported as 47200.
With “STTKSICYVLRHLMITYVFYLSATGIDDLTVLIGNHSHNMIRTIVRSALWISY” the “transcriptional activation domain activity” value was 39900.
In the case of “MEWVRTARGRVPPGRRPVEGGYESSGARLYHALAVVDGVRVPGKTGEHLGGCN”, the “transcriptional activation domain activity” value is reported as 32000.
In the case of “SSEEEDEEDEEEEEEEEEEEAPPKKRAKTKGTVLYCYIFSPFFVPATVNPAID”, the “transcriptional activation domain activity” value is reported as 56700.
For “MVIRYGKLNLKYHPVHCLNHFQILCLSWAFCALLDPVGLIVSILLWKLLPTIE”, the “transcriptional activation domain activity” value was 69300.
For “GQRPFGQVLNFFSCFLFIAFSCCHGPSLVNLIVWAAFFAQSTLFLIYLLRCIC”, the “transcriptional activation domain activity” value was 43800.
“KLWKKPIIVVMAAMPIIMDGVGNLLIPYLHSFVLHSLLFCHKKVAFLMLLLIF” was tested, and the “transcriptional activation domain activity” value was 59100.
In the case of “LETGSFQNYYQKMDAENADRVYSKGVKLIASGTLPSGIFNREELFEEDSFYKY”, the “transcriptional activation domain activity” value is reported as 68400.
For “HLIVSLSLSIFLFYLFWCLSIHVCVCLVSIYYILLLASLCFFLFFFNYLPILL”, the “transcriptional activation domain activity” value was 50300.
For “VGTVMFGLACASSTQVLLSLIGGWNVGFFISLLAVTIFAVLTKIIPWVWYIYS”, the “transcriptional activation domain activity” value was 58300.
For “MDDALSVKSNDDGTYDVAVHIADVSYFVKPNTALDRDARKRATSVYLIQRAVP”, the “transcriptional activation domain activity” value was 15900.
For “ERVGERRGSGKTERQRAHDAPEREGARGEKGRRARGTNGEGRGGEEREVRQEG”, the “transcriptional activation domain activity” value was 25600.
“LHNRFGAFTPSKTPKSVFVVTYLGRVFITIMFCLVVVIAALTIKYSADSNNLY” was tested, and the “transcriptional activation domain activity” value was 9590.
With “MPFSVSASNILLSPFHLIFWSIRNFSNILIFLFSPFFLVLYYASYVFTPIFIP” the “transcriptional activation domain activity” value was 96500.
With “LVSALWVLNTLHSALMFHLVYHYLILNAFDLFELSQNVWSLPASMIVHLIMAF” the “transcriptional activation domain activity” value was 47500.
For “MFYNFFFFIIIYLCFFARMFLVVSRIVMLLAFLYSCLIPLLCGLVFFCIRFKS”, the “transcriptional activation domain activity” value was 67300.
“NAFGAYSTDPSNIAEGLNTVGFRSGFAFFFVSMGIMCLIYLVCSLRTNVCFFM” was tested, and the “transcriptional activation domain activity” value was 26100.
With “MFMTELLWGPGVRRLFLVFLFFISFPSLIPFFLSCLSFCTLLISLLCSFGTCA” the “transcriptional activation domain activity” value was 38500.
With “EVSEESGDSGDDEGRKEKKKRKRVKEEEVEDEGERKKKKSKKSKDEKSAEKAD” the “transcriptional activation domain activity” value was 47600.
“DGKWCLRFVPRGQRWLLAITRDFTDTAMMSVAARMVWHPIAYTVCLLPVTIAR” was tested, and the “transcriptional activation domain activity” value was 55000.
“CIKATLAPDSAIFVGPSALIFHVLQLSILIILLLKTGGPGSGKGTQCTRLAKD” was tested, and the “transcriptional activation domain activity” value was 29600.
For “YYGRTIVRTNFWLKTYINFEIDALLLNGRATVRRFINHLYQDQRAKLFKECKH”, the “transcriptional activation domain activity” value was 54700.
In the case of “QENHNSSENGNENENEQDSLALDDLDRAFELVEGMDMDWMMPSHAHHSPATTA”, the “transcriptional activation domain activity” value is reported as 123000.
With “MSQFDFGLLFGQPFFLCSLVLFGLGWFITFIATCTIGSSPHLIWVEIFYNLFL” the “transcriptional activation domain activity” value was 58500.
In the case of “LLKLKMATKTNDIALYEHFIDMSLRFLPFWNMIVSYYLCLLLLFNTTHIIFIL”, the “transcriptional activation domain activity” value is reported as 90500.
With “PQYLHLGYLGHHIAIDPIPHPVGTVYLPLPPDTFPTWCTVTACGWILLPLFPL” the “transcriptional activation domain activity” value was 29000.
With “RALLLLSYCAFLKTTGVTDGEIVQLISTSAELKFRPWSLVRGAECVNRCITAL” the “transcriptional activation domain activity” value was 47400.
For “MPGGWVFLMSIAFYYFILLFFLLLPMIYGFLFVCLFGVGTCFVICTFGFFPFF”, the “transcriptional activation domain activity” value was 62400.
With “LIIPIIMDHLYPVPYMAFWDVSCFVNKVYFMQIVWLFNLPFLLHLLITLICYP” the “transcriptional activation domain activity” value was 68100.
“SPLPLLICSLPSLVNPLPLLPSTLALLPPPFILYYVLQYHVILFVFLVVFCFS” was tested, and the “transcriptional activation domain activity” value was 33200.
“DGNNSKPLSPGWTDQTAYNAFGITTGMFNTTTMDDVYNYLFDDEDTPPNPKKE” was tested, and the “transcriptional activation domain activity” value was 61500.
In the case of “KSVSRLHAKIEYDQEEDRFVLLVVGRNGAWVDGVWSASGTRACLGERSQIQIA”, the “transcriptional activation domain activity” value is reported as 42000.
For “AAAVAVAREHVQKEVVATVTVAKEHVQKEEVVAAVAVAREHAQKEVVATVAVA”, the “transcriptional activation domain activity” value was 56000.
“ITALVIFWSIPVAFVGSLSNLDSLTNKVHFLRFLNHLPKKLKGLVTSLLPTIL” was tested, and the “transcriptional activation domain activity” value was 34700.
In the case of “SIHEPVDFLEPQPFLDFFVVFCFRLLFLWLLIFIFLFRLFIVFSLLFLFLHHI”, the “transcriptional activation domain activity” value is reported as 28600.
With “DKEAKADVEEKPKTPRGRKRKTAEEVNGEEAQTEKEPPVKKTKPASKAKPASK” the “transcriptional activation domain activity” value was 42600.
For “KFTAFTFLPLTLWHEFSFFFNLYFLVVALSQCIPVLRIGYLSSYIVPLVFVLA”, the “transcriptional activation domain activity” value was 54900.
With “MPPFFFGLWRIFFFFFFFFCKQLWWTVEFVTYVSCFFFLLNKLVFWLFFFSVC” the “transcriptional activation domain activity” value was 58500.
“MGRVVGVGSFYVWICHFFYIFSFFFSPMMNWTGSGLVGCVMALLYFILSFSFS” was tested, and the “transcriptional activation domain activity” value was 46200.
“LRAYPVPQALQIAGNESVSPCLVRCLRLLTVLADLLYMHRGFFARALNDHPKD” was tested, and the “transcriptional activation domain activity” value was 46700.
“GQHEGLDKLREYHEHVLDRILFALLLRKRQKPVMKLLEEIFTLVLKFSKYSSA” was tested, and the “transcriptional activation domain activity” value was 59400.
With “LTPSSEQVIPACSTRTSTARASAGPSTKGAASRPSSSVSTRSRAPTPSSKKSC” the “transcriptional activation domain activity” value was 29300.
With “MCFVVFIRWELLMISHCAVVYLLLLFLLFIVHYFLIEGFLFLYVLVRAFAFVL” the “transcriptional activation domain activity” value was 41900.
In the case of “PRHIQTIDEKLINDSNYLAFLKFDDLENEKFHSSASSISSPSYSSPSFSSYRN”, the “transcriptional activation domain activity” value is reported as 82100.
“GVLRLFQICLPCFAAVDFVQGFVRYLYHIPNFNGVYETKMWVWVGLIICLIFK” was tested, and the “transcriptional activation domain activity” value was 53900.
For “PIMVVTLPLPAQITQYYPITLVSVLQWFAFWSFSALLTIPWLLCVYQLVTHSL”, the “transcriptional activation domain activity” value was 54400.
With “EFILHTMPVVAIKDTHAWNGNTPVELGLLGFWNLIVVWLKLLIPWRFFRLWAL” the “transcriptional activation domain activity” value was 63800.
With “KPPCVWCRAVGTAASMLSNLLANGLLAFQCHMGWSIVYIAALLCIIYATTLSL” the “transcriptional activation domain activity” value was 38300.
With “RYLRHIKNIVFVLVLLNYWSKLYNTVLIGGPVRAVHDFKTYLIRIVFRQLRRL” the “transcriptional activation domain activity” value was 47300.
With “LIHFFRLYRSGHGPIRMFFLHIQALYNLFNLIFSWFALANLWLTFSIIIRLVP” the “transcriptional activation domain activity” value was 70000.
With “NPMTFMGSTQRLAAIRNLRSNPKFLFVHLPNILSFLCIIVGVVWLLLLPLNEY” the “transcriptional activation domain activity” value was 33900.
For “MRWNRIIIGSHVSVLWMIGYVFTLLLTLVPSPLLEFRYFILPFIFFCIHLPPP”, the “transcriptional activation domain activity” value was 48100.
In the case of “PLHLLGDKAEVEIGGVWSAGMAYGSRELVERHLFSLYFMLPLVAVCIGFLYHN”, the “transcriptional activation domain activity” value is reported as 41200.
For “RGDGAEDSNRKRRRRSRSPRRSPPDRARERSTTADDAKGTRHRDRSSHRHKDK”, the “transcriptional activation domain activity” value was 32600.
For “GLWLVLLCDAARFPDVVDLVKRKGSRFPASGDLASNESWYLSLWAIKAHILQR”, the “transcriptional activation domain activity” value was 64800.
With “MRDISTLTVCCPLLFFLNLLHFLCFSLCFSLTYFINCLTFLLFLYISFFIKLF” the “transcriptional activation domain activity” value was 42800.
With “DQKPIIDQKPLALLLEKLTVSEPPRGGTLGPAWMRERLEASGQMALWKRIVEK” the “transcriptional activation domain activity” value was 34100.
“GKEVVDIQEAEVEEGGVKREKVRVVFKDGTDAVGDLVVGCDGARSRARECIVG” was tested, and the “transcriptional activation domain activity” value was 45700.
In the case of “MLWLVSWWLCLVVSNTLLFYLGEGGLVCFILCNSSFQVYLFLDLFIFLLFIHS”, the “transcriptional activation domain activity” value is reported as 39800.
With “RVVLRCLFLAYECIEEADVKSTLSYTIEVAFNLITSTCDYIGPVAMSHALRAG” the “transcriptional activation domain activity” value was 53900.
For “YECALGIYSCVSFFVGVFYYIFIIFLSPIIFILLIILPLRISFVLCMAILLFG”, the “transcriptional activation domain activity” value was 28600.
In the case of “MHLQGFVAWMFYILNCLAFSLRIISHWIFPIYLIWGIGLVENDYSSIDSWFLL”, the “transcriptional activation domain activity” value is reported as 42100.
In the case of “ESDEPEQQRAKSQSRRRQSRGRGRKGGSESEAERSDVSASGGGRRNRQRQKKQ”, the “transcriptional activation domain activity” value is reported as 9900.
In the case of “GEKRKRGGEGKGEDDDDDDDDDRGQEGDGKRGSEDTGGGSKKGRRRRKRGKGH”, the “transcriptional activation domain activity” value is reported as 22600.
In the case of “PVPAAAASPVAVPQPAPEQSKPVVKEEKKPEKKVDEERKRKGTKEGQQQQQQQ”, the “transcriptional activation domain activity” value is reported as 16700.
For “KTGEDRGRGRGRGRGKRKGEGRGGEGKTGEEGEEEEEEKGERREREREREKKK”, the “transcriptional activation domain activity” value was 23400.
“LILRMQVATLTKLWGLPPEFEIVCRDIWALHLSLLPDPPPPEPYYFHERGDGM” was tested, and the “transcriptional activation domain activity” value was 34400.
For “GVSMGSGYFFMVWLTMWLYSELNFWVIDGVCSLVEMQWMPFFILSWIICQVAG”, the “transcriptional activation domain activity” value was 50800.
In the case of “MLTLLSVTHGLLHKSLVHLGSIFDLCLLWAQGKYTNPILSCLLSLYLLSWLLY”, the “transcriptional activation domain activity” value is reported as 62700.
With “SQQRLEVSAMYLFWHMDTVRGLCVRMPGTVMTRAHFFRLLTYYFAMLFLSAAL” the “transcriptional activation domain activity” value was 57000.
For “DMDEEEGGAPAKPVGACARCKNLKVKCEFKTETDPCKRCFNGRHDCVTPGRKK”, the “transcriptional activation domain activity” value was 28500.
“AAGGGGTGAGGAAGAARAAGHGAVGAAAGDGEQREGRAGRGRGHGRGVEGGRG” was tested, and the “transcriptional activation domain activity” value was 59200.
With “LAEGAATEEAKTEEGSAPAGETAALAEAAATEEAAATEEVKEEKKEEAATTKA” the “transcriptional activation domain activity” value was 29900.
